± gives the standard deviation of the averaged measurements.
B1: library; a variant is named by its letters at N, in order (parent)
chain: GCUGUCACCGAGAAACUGUGAAGUAUAUCUUAAACCUGGGCACUUAAAAGAUAUAUGGAGUUAGUAGUGCAACCUGCUCGGUCUGAUGAGUCCNNNNNNGGACGAAACAGC

How the values were obtained:
[1] = variants of: B1; test: normalized RNA/DNA level without ligand (relative to sTRSVctl = 100) (log10 (% of sTRSVctl)); HEK293T; ligand: cyclic di-GMP (c-di-GMP-II aptamer); higher = less ribozyme self-cleavage, higher mRNA level; settings: reporter: mCherry (pCS4076), ligand present: no
Method in brief: (§1)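 Only sequences with at least 100 DNA reads were analyzed, from HEK293T cells transfected with 4 µg per 6-well well of ribozyme switch library plasmids 72 h before RNA extraction with EDTA. Any ligand was added 1 h before transfection. RNA level was defined as RNA over DNA reads, normalized to a spiked-in non-cleaving sequence or to the top sequences, then scaled and log-transformed. The top set was 25 sequences, and the scaling was ×100 followed by log10.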

[2] = variants of: B1; test: normalized RNA/DNA level with ligand (relative to sTRSVctl = 100) (log10 (% of sTRSVctl)); HEK293T; ligand: cyclic di-GMP (c-di-GMP-II aptamer); ligand concentration (+) RNA-Seq: 1 mM; higher = less ribozyme self-cleavage, higher mRNA level; settings: reporter: mCherry (pCS4076), ligand present: yes
Method in brief: as §1

GCUGUCACCGAGAAACUGUGAAGUAUAUCUUAAACCUGGGCACUUAAAAGAUAUAUGGAGUUAGUAGUGCAACCUGCUCGGUCUGAUGAGUCCAUAAGCGGACGAAACAGC
normalized RNA/DNA level without ligand (log10) [1]: 1.6 ± 0.022
normalized RNA/DNA level with ligand (log10) [2]: 1.77 ± 0.082

GCUGUCACCGAGAAACUGUGAAGUAUAUCUUAAACCUGGGCACUUAAAAGAUAUAUGGAGUUAGUAGUGCAACCUGCUCGGUCUGAUGAGUCCUAAUUGGGACGAAACAGC
normalized RNA/DNA level without ligand (log10) [1]: 1.71 ± 0.04
normalized RNA/DNA level with ligand (log10) [2]: 1.83 ± 0.13

GCUGUCACCGAGAAACUGUGAAGUAUAUCUUAAACCUGGGCACUUAAAAGAUAUAUGGAGUUAGUAGUGCAACCUGCUCGGUCUGAUGAGUCCUAGGCCGGACGAAACAGC
normalized RNA/DNA level without ligand (log10) [1]: 1.819 ± 0.0024
normalized RNA/DNA level with ligand (log10) [2]: 1.9 ± 0.095

GCUGUCACCGAGAAACUGUGAAGUAUAUCUUAAACCUGGGCACUUAAAAGAUAUAUGGAGUUAGUAGUGCAACCUGCUCGGUCUGAUGAGUCCUGCGCUGGACGAAACAGC
normalized RNA/DNA level without ligand (log10) [1]: 1.72 ± 0.032
normalized RNA/DNA level with ligand (log10) [2]: 1.89 ± 0.11

GCUGUCACCGAGAAACUGUGAAGUAUAUCUUAAACCUGGGCACUUAAAAGAUAUAUGGAGUUAGUAGUGCAACCUGCUCGGUCUGAUGAGUCCUUUGGCGGACGAAACAGC
normalized RNA/DNA level without ligand (log10) [1]: 1.79 ± 0.033
normalized RNA/DNA level with ligand (log10) [2]: 1.9 ± 0.16

GCUGUCACCGAGAAACUGUGAAGUAUAUCUUAAACCUGGGCACUUAAAAGAUAUAUGGAGUUAGUAGUGCAACCUGCUCGGUCUGAUGAGUCCCCCUGGGGACGAAACAGC
normalized RNA/DNA level without ligand (log10) [1]: 1.74 ± 0.022
normalized RNA/DNA level with ligand (log10) [2]: 1.85 ± 0.03

GCUGUCACCGAGAAACUGUGAAGUAUAUCUUAAACCUGGGCACUUAAAAGAUAUAUGGAGUUAGUAGUGCAACCUGCUCGGUCUGAUGAGUCCUAUUGUGGACGAAACAGC
normalized RNA/DNA level without ligand (log10) [1]: 1.67 ± 0.034
normalized RNA/DNA level with ligand (log10) [2]: 1.81 ± 0.11

GCUGUCACCGAGAAACUGUGAAGUAUAUCUUAAACCUGGGCACUUAAAAGAUAUAUGGAGUUAGUAGUGCAACCUGCUCGGUCUGAUGAGUCCCGAUUGGGACGAAACAGC
normalized RNA/DNA level without ligand (log10) [1]: 1.7 ± 0.019
normalized RNA/DNA level with ligand (log10) [2]: 1.89 ± 0.03

GCUGUCACCGAGAAACUGUGAAGUAUAUCUUAAACCUGGGCACUUAAAAGAUAUAUGGAGUUAGUAGUGCAACCUGCUCGGUCUGAUGAGUCCUUGGCAGGACGAAACAGC
normalized RNA/DNA level without ligand (log10) [1]: 1.76 ± 0.035
normalized RNA/DNA level with ligand (log10) [2]: 1.83 ± 0.037

GCUGUCACCGAGAAACUGUGAAGUAUAUCUUAAACCUGGGCACUUAAAAGAUAUAUGGAGUUAGUAGUGCAACCUGCUCGGUCUGAUGAGUCCCCAGGAGGACGAAACAGC
normalized RNA/DNA level without ligand (log10) [1]: 1.5 ± 0.088
normalized RNA/DNA level with ligand (log10) [2]: 1.71 ± 0.12

GCUGUCACCGAGAAACUGUGAAGUAUAUCUUAAACCUGGGCACUUAAAAGAUAUAUGGAGUUAGUAGUGCAACCUGCUCGGUCUGAUGAGUCCUGCCCAGGACGAAACAGC
normalized RNA/DNA level without ligand (log10) [1]: 1.88 ± 0.032
normalized RNA/DNA level with ligand (log10) [2]: 1.96 ± 0.096

GCUGUCACCGAGAAACUGUGAAGUAUAUCUUAAACCUGGGCACUUAAAAGAUAUAUGGAGUUAGUAGUGCAACCUGCUCGGUCUGAUGAGUCCGAUGAUGGACGAAACAGC
normalized RNA/DNA level without ligand (log10) [1]: 1.56 ± 0.064
normalized RNA/DNA level with ligand (log10) [2]: 1.75 ± 0.099

GCUGUCACCGAGAAACUGUGAAGUAUAUCUUAAACCUGGGCACUUAAAAGAUAUAUGGAGUUAGUAGUGCAACCUGCUCGGUCUGAUGAGUCCAAGCUAGGACGAAACAGC
normalized RNA/DNA level without ligand (log10) [1]: 1.56 ± 0.024
normalized RNA/DNA level with ligand (log10) [2]: 1.72 ± 0.12

GCUGUCACCGAGAAACUGUGAAGUAUAUCUUAAACCUGGGCACUUAAAAGAUAUAUGGAGUUAGUAGUGCAACCUGCUCGGUCUGAUGAGUCCGGUAAGGGACGAAACAGC
normalized RNA/DNA level without ligand (log10) [1]: 1.49 ± 0.12
normalized RNA/DNA level with ligand (log10) [2]: 1.65 ± 0.098

GCUGUCACCGAGAAACUGUGAAGUAUAUCUUAAACCUGGGCACUUAAAAGAUAUAUGGAGUUAGUAGUGCAACCUGCUCGGUCUGAUGAGUCCUUCACCGGACGAAACAGC
normalized RNA/DNA level without ligand (log10) [1]: 1.778 ± 0.0039
normalized RNA/DNA level with ligand (log10) [2]: 1.89 ± 0.078

GCUGUCACCGAGAAACUGUGAAGUAUAUCUUAAACCUGGGCACUUAAAAGAUAUAUGGAGUUAGUAGUGCAACCUGCUCGGUCUGAUGAGUCCGCGACAGGACGAAACAGC
normalized RNA/DNA level without ligand (log10) [1]: 1.52 ± 0.091
normalized RNA/DNA level with ligand (log10) [2]: 1.73 ± 0.084

GCUGUCACCGAGAAACUGUGAAGUAUAUCUUAAACCUGGGCACUUAAAAGAUAUAUGGAGUUAGUAGUGCAACCUGCUCGGUCUGAUGAGUCCACUACCGGACGAAACAGC
normalized RNA/DNA level without ligand (log10) [1]: 1.69 ± 0.04
normalized RNA/DNA level with ligand (log10) [2]: 1.86 ± 0.097

GCUGUCACCGAGAAACUGUGAAGUAUAUCUUAAACCUGGGCACUUAAAAGAUAUAUGGAGUUAGUAGUGCAACCUGCUCGGUCUGAUGAGUCCUGUGGAGGACGAAACAGC
normalized RNA/DNA level without ligand (log10) [1]: 1.58 ± 0.067
normalized RNA/DNA level with ligand (log10) [2]: 1.76 ± 0.062

GCUGUCACCGAGAAACUGUGAAGUAUAUCUUAAACCUGGGCACUUAAAAGAUAUAUGGAGUUAGUAGUGCAACCUGCUCGGUCUGAUGAGUCCUUAGGCGGACGAAACAGC
normalized RNA/DNA level without ligand (log10) [1]: 1.7 ± 0.021
normalized RNA/DNA level with ligand (log10) [2]: 1.83 ± 0.14

GCUGUCACCGAGAAACUGUGAAGUAUAUCUUAAACCUGGGCACUUAAAAGAUAUAUGGAGUUAGUAGUGCAACCUGCUCGGUCUGAUGAGUCCCCAUUCGGACGAAACAGC
normalized RNA/DNA level without ligand (log10) [1]: 1.59 ± 0.043
normalized RNA/DNA level with ligand (log10) [2]: 1.77 ± 0.12

GCUGUCACCGAGAAACUGUGAAGUAUAUCUUAAACCUGGGCACUUAAAAGAUAUAUGGAGUUAGUAGUGCAACCUGCUCGGUCUGAUGAGUCCGAUCACGGACGAAACAGC
normalized RNA/DNA level without ligand (log10) [1]: 1.727 ± 0.016
normalized RNA/DNA level with ligand (log10) [2]: 1.84 ± 0.085

GCUGUCACCGAGAAACUGUGAAGUAUAUCUUAAACCUGGGCACUUAAAAGAUAUAUGGAGUUAGUAGUGCAACCUGCUCGGUCUGAUGAGUCCUAAUGUGGACGAAACAGC
normalized RNA/DNA level without ligand (log10) [1]: 1.652 ± 0.0062
normalized RNA/DNA level with ligand (log10) [2]: 1.78 ± 0.087

GCUGUCACCGAGAAACUGUGAAGUAUAUCUUAAACCUGGGCACUUAAAAGAUAUAUGGAGUUAGUAGUGCAACCUGCUCGGUCUGAUGAGUCCCAGGACGGACGAAACAGC
normalized RNA/DNA level without ligand (log10) [1]: 1.715 ± 0.017
normalized RNA/DNA level with ligand (log10) [2]: 1.81 ± 0.1

GCUGUCACCGAGAAACUGUGAAGUAUAUCUUAAACCUGGGCACUUAAAAGAUAUAUGGAGUUAGUAGUGCAACCUGCUCGGUCUGAUGAGUCCGUUCAAGGACGAAACAGC
normalized RNA/DNA level without ligand (log10) [1]: 1.62 ± 0.059
normalized RNA/DNA level with ligand (log10) [2]: 1.81 ± 0.083

GCUGUCACCGAGAAACUGUGAAGUAUAUCUUAAACCUGGGCACUUAAAAGAUAUAUGGAGUUAGUAGUGCAACCUGCUCGGUCUGAUGAGUCCGAGCCGGGACGAAACAGC
normalized RNA/DNA level without ligand (log10) [1]: 1.823 ± 0.0091
normalized RNA/DNA level with ligand (log10) [2]: 1.9 ± 0.11

GCUGUCACCGAGAAACUGUGAAGUAUAUCUUAAACCUGGGCACUUAAAAGAUAUAUGGAGUUAGUAGUGCAACCUGCUCGGUCUGAUGAGUCCCCACCAGGACGAAACAGC
normalized RNA/DNA level without ligand (log10) [1]: 1.7068 ± 0.0011
normalized RNA/DNA level with ligand (log10) [2]: 1.82 ± 0.11

Reference: the supplement of paper PMC6757056
